In article PMC12338573 (bioRxiv, 2025):

Biological target: the molecule itself
Assay: SEC-MALS

B1: hFcµ-tFcµ-chi3 with Cys414 mutated (domain or fragment)
chain: TAIRVFAIPPSFASIFLTKSTKLTCLVTDLTTYDSVTISWTRQNGEAVKTHTNISESHPNATFSAVGEASIAEDDWNSGERFTCTVTHTDLPSPLKQTISRPKGVALHRPDVYLLPPAREQLNLRESATITCLVTGFSPADVFVQWMQRGQPLSPEKYVTSAPMPEPQAPGRYFAHSILTVSEEEWNTGETYTCVVAHEALPNRVTERTVDRTSNQPNLVNLSLNVPQRCMAQ
pentamer:monomer ratio: 14%
